The values below come from patent US20160160255A1, “Methods and Materials for Producing 6-Carbon Monomers” (INVISTA North America S.á.r.l., priority 2014, published 2016).

This assay is described as follows: β-ketothiolase activity, 4-hydroxybutyryl-CoA and acetyl-CoA to 3-oxo-6-hydroxyhexanoyl-CoA. In kind it is biochemical. The settings on record: 5 μM enzyme and ChnC lactonase, 10 mM γ-butyrolactone, 5 mM acetyl-CoA, pH 6.8, 30° C., 3 hour. The protocol:
A nucleotide sequence encoding a N-terminal His-tag was added to the gene from Clostridium aminobutyricum encoding the β-ketothiolase activity of SEQ ID NO: 14 (see FIG. 6) such that a N-terminal HIS tagged enzyme could be produced. The resulting modified gene was cloned into a pET15b expression vector under control of the T7 promoter and the expression vector was transformed into a BL21[DE3] E. coli host. The resulting recombinant E. coli strain was cultivated at 37° C. in a 1 L shake flask culture containing 350 mL LB media and ampicillin antibiotic selection pressure, with shaking at 230 rpm. Each culture was induced overnight at 25° C. using 1 mM IPTG.
The pellet from each induced shake flask culture was harvested via centrifugation. Each pellet was resuspended and lysed via sonication. The cell debris was separated from the supernatant via centrifugation. The enzyme was purified from the supernatant using Ni-affinity chromatography, buffer exchanged and concentrated into 50 mM potassium phosphate buffer (pH=6.8) via ultrafiltration.
Enzyme activity assays converting 4-hydroxybutyryl-CoA and acetyl-CoA to 3-oxo-6-hydroxyhexanoyl-CoA were performed in triplicate in a buffer composed of a final concentration of 50 mM potassium phosphate buffer (pH=6.8), 75 μM ZnCl2, 10 mM γ-butyrolactone and 5 mM acetyl-CoA. […] The formation of 3-oxo-6-hydroxyhexanoyl-CoA was determined via LC-MS.

B1: SEQ ID NO 14: Clostridium aminobutyricum CoA-transferase, GenBank Accession No. CAB60036.2, with β-ketothiolase activity, N-terminal His-tagged (protein, listed as Clostridium aminobutyricum)
chain: MDWKKIYEDRTCTADEAVKSIKSGDRVLFAHCVAEPPVLVEAMVANAAAYKNVTVSHMVTLGKGEYSKPEYKENFTFEGWFTSPSTRGSIAEGHGQFVPVFFHEVPSLIRKDIFHVDVFMVMVSPPDHNGFCCVGVSSDYTMQAIKSAKIVLAEVNDQVPVVYGDTFVHVSEIDKFVETSHPLPEIGLPKIGEVEAAIGKHCASLIEDGSTLQLGIGAIPDAVLSQLKDKKHLGIHSEMISDGVVDLYEAGVIDCSQKSIDKGKMAITFLMGTKRLYDFAANNPKVELKPVDYINHPSVVAQCSKMVCINACLQVDFMGQIVSDSIGTKQFSGVGGQVDFVRGASMSIDGKGKAIIAMPSVAKKKDGSMISKIVPFIDHGAAVTTSRNDADYVVTEYGIAEMKGKSLQDRARALINIAHPDFKDELKAEFEKRFNAAF
modifications: N-terminal His tag
With B1, the “acceptance of 4-hydroxybutyryl-CoA and acetyl-CoA as substrates, formation of 3-oxo-6-hydroxyhexanoyl-CoA (LC-MS)” value was “accepted 4-hydroxybutyryl-CoA and acetyl-CoA as substrates”.
